In experiment [1] the target is T1, Sm-Gβ1 with untagged Gγ2 (human, UniProt P62873 2-340; P59768 2-68).
T1 construct: whole, on cells; also called Sm-Gβγ; SmBiT-fused Gβ1 subunit and native Gγ2 subunit
The experiment can be described thus: NanoBiT split-luciferase complementation in HEK293 cells (NanoBiT-Gs: Gαs-Lg, Sm-Gβ1, Gγ2; pairing from paragraph 252). As for the experimental part: (§1) To complement the inventive chimeric G-protein-based TGFα shedding assay, the inventors made an additional inventive assay in which dissociation of the Gα subunit from the Gβγ subunits, a critical process of G-protein activation, is measured via a luciferase complementation system. Bioluminescence Resonance Energy Transfer (BRET) between a Renilla luciferase-inserted Gα subunit and a GFP10-fused Gβ or Gγ subunit was previously developed to measure Gα-Gβγ dissociation (Gales et al., 2005). Here, they replaced the BRET pair with a split luciferase (NanoLuc Binary Technology; NanoBiT) (Dixon et al., 2016). […] They generated a series of Gα-Lg, Sm-Gβ and Sm-Gγ subunits and optimized a combination.
(§2) Plasmid transfection was performed in a 6-well plate with a mixture of 100 ng Gα-Lg-encoding plasmid, 500 ng Sm-Gβ-encoding plasmid, 500 ng untagged Gγ₂-encoding plasmid, 200 ng GPCR-encoding plasmid with or without 100 ng RIC8-encoding plasmid (per well, hereafter).

Experiment [2] addresses T1, Sm-Gβ1 with untagged Gγ2. Kind of experiment: NanoBiT split-luciferase complementation in HEK293 cells (NanoBiT-G12: Gα12-Lg, Sm-Gβ1, Gγ2; pairing from paragraph 252). As for the experimental part:
as §1, §2

In experiment [3] the target is T1, Sm-Gβ1 with untagged Gγ2. The experiment can be described thus: NanoBiT split-luciferase complementation in HEK293 cells (NanoBiT-G13: Gα13-Lg, Sm-Gβ1, Gγ2; pairing from paragraph 252). On the procedure:
as §1, §2

The target of experiment [4] is T1, Sm-Gβ1 with untagged Gγ2. The experiment can be described thus: NanoBiT split-luciferase complementation in HEK293 cells (NanoBiT-Gq: Gαq-Lg, Sm-Gβ1, Gγ2; pairing from paragraph 252). On the procedure:
as §1, §2

The source of these data is patent US20220220185A1 (CELL NETWORKS, published 2022).

T1 sequence (P62873 other isoform, or with tags, fused parts or gaps, chain 1 of 2): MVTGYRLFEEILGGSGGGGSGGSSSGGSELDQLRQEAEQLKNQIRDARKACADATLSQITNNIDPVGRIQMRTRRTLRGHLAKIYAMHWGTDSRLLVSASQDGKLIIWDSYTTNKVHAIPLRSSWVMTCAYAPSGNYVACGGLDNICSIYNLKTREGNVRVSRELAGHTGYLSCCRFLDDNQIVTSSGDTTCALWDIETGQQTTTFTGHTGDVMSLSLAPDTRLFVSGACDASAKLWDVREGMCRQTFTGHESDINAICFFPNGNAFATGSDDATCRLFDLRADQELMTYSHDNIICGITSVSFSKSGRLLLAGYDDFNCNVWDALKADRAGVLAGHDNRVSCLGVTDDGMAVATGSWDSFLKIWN
T1 sequence (P59768 2-68, chain 2 of 2): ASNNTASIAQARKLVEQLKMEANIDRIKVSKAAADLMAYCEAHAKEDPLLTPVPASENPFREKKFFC

B1: Gαs-Lg (other, human, UniProt P63092 2-394, looked up)
chain: GCLGNSKTEDQRNEEKAQREANKKIEKQLQKDKQVYRATHRLLLLGAGESGKSTIVKQMRILHVNGFNGEGGEEDPQAARSNSDGEKATKVQDIKNNLKEAIETIVAAMSNLVPPVELANPENQFRVDYILSVMNVPDFDFPPEFYEHAKALWEDEGVRACYERSNEYQLIDCAQYFLDKIDVIKQADYVPSDQDLLRCRVLTSGIFETKFQVDKVNFHMFDVGGQRDERRKWIQCFNDVTAIIFVVASSSYNMVIREDNQTNRLQEALNLFKSIWNNRWLRTISVILFLNKQDLLAEKVLAGKSKIEDYFPEFARYTTPEDATPEPGEDPRVTRAKYFIRDEFLRISTASGDGRHYCYPHFTCAVDTENIRRVFNDCRDIIQRMHLRQYELL
notes: whole, on cells; the LgBiT insert is not placed; also called NanoBiT-Gs (Gα subunit); Gs
Turning to B1, the binding result in experiment [1] is given as “binds”.

B2: Gα12-Lg (other, human, UniProt Q03113 1-381, looked up)
chain: MSGVVRTLSRCLLPAEAGGARERRAGSGARDAEREARRRSRDIDALLARERRAVRRLVKILLLGAGESGKSTFLKQMRIIHGREFDQKALLEFRDTIFDNILKGSRVLVDARDKLGIPWQYSENEKHGMFLMAFENKAGLPVEPATFQLYVPALSALWRDSGIREAFSRRSEFQLGESVKYFLDNLDRIGQLNYFPSKQDILLARKATKGIVEHDFVIKKIPFKMVDVGGQRSQRQKWFQCFDGITSILFMVSSSEYDQVLMEDRRTNRLVESMNIFETIVNNKLFFNVSIILFLNKMDLLVEKVKTVSIKKHFPDFRGDPHRLEDVQRYLVQCFDRKRRNRSKPLFHHFTTAIDTENVRFVFHAVKDTILQENLKDIMLQ
notes: whole, on cells; the LgBiT insert is not placed; also called NanoBiT-G12 (Gα subunit); G12
Turning to B2, the binding result in experiment [2] is “binds”.

B3: Gα13-Lg (other, human, UniProt Q14344 1-377, looked up)
chain: MADFLPSRSVLSVCFPGCLLTSGEAEQQRKSKEIDKCLSREKTYVKRLVKILLLGAGESGKSTFLKQMRIIHGQDFDQRAREEFRPTIYSNVIKGMRVLVDAREKLHIPWGDNSNQQHGDKMMSFDTRAPMAAQGMVETRVFLQYLPAIRALWADSGIQNAYDRRREFQLGESVKYFLDNLDKLGEPDYIPSQQDILLARRPTKGIHEYDFEIKNVPFKMVDVGGQRSERKRWFECFDSVTSILFLVSSSEFDQVLMEDRLTNRLTESLNIFETIVNNRVFSNVSIILFLNKTDLLEEKVQIVSIKDYFLEFEGDPHCLRDVQKFLVECFRNKRRDQQQKPLYHHFTTAINTENIRLVFRDVKDTILHDNLKQLMLQ
notes: whole, on cells; the LgBiT insert is not placed; also called NanoBiT-G13 (Gα subunit); G13
Regarding B3, the binding result in experiment [3] is listed as “binds”.

B4: Gαq-Lg (other, human, UniProt P50148 1-359, looked up)
chain: MTLESIMACCLSEEAKEARRINDEIERQLRRDKRDARRELKLLLLGTGESGKSTFIKQMRIIHGSGYSDEDKRGFTKLVYQNIFTAMQAMIRAMDTLKIPYKYEHNKAHAQLVREVDVEKVSAFENPYVDAIKSLWNDPGIQECYDRRREYQLSDSTKYYLNDLDRVADPAYLPTQQDVLRVRVPTTGIIEYPFDLQSVIFRMVDVGGQRSERRKWIHCFENVTSIMFLVALSEYDQVLVESDNENRMEESKALFRTIITYPWFQNSSVILFLNKKDLLEEKIMYSHLVDYFPEYDGPQRDAQAAREFILKMFVDLNPDSDKIIYSHFTCATDTENIRFVFAAVKDTILQLNLKEYNLV
notes: whole, on cells; the LgBiT insert is not placed; also called NanoBiT-Gq (Gα subunit); Gq
In the case of B4, in experiment [4], the binding result is “binds”.
